One block for each binder: values may come before it.
Legend:
Conditions in all cases: both partners purified
[1] = molecular target: T1, Mis12 complex (Mis12C), full length: MIS12, PMF1, NSL1, DSN1 (human, UniProt Q9H081 1-205; Q6P1K2 1-205; Q96IY1 1-281; Q9H410 1-356); experiment: ITC; PEAQ-ITC; 50 mM HEPES pH 8.0, 150 mM NaCl, 1 mM TCEP; 19 injections; one-site binding fit
T1 construct: MIS12, human, subunit of the Mis12 complex; PMF1, human, subunit of the Mis12 complex; NSL1, human, subunit of the Mis12 complex; DSN1, human, subunit of the Mis12 complex (DSN1^SORT-HIS); In BLI one partner was biotinylated by sortase (GGGG-biotin peptide); also called Mis12C^WT; wild-type Mis12C; source: Tnao38 insect cells (baculovirus from pBIG1A), purified (Talon, SEC); copies: + + +
T1 sequence (looked up) 1: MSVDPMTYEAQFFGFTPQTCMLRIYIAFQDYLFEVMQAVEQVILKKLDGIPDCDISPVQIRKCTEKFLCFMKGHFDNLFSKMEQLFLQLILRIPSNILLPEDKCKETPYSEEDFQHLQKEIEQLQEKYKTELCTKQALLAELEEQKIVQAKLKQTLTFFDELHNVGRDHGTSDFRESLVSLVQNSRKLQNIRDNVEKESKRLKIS
T1 sequence (looked up) 2: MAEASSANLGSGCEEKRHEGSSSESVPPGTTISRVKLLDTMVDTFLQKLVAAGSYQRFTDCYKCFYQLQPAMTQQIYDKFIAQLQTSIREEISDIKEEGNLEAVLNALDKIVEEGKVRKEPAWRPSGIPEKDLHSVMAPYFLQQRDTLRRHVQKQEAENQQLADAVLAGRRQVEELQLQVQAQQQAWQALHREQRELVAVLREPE
T1 sequence (looked up) 3: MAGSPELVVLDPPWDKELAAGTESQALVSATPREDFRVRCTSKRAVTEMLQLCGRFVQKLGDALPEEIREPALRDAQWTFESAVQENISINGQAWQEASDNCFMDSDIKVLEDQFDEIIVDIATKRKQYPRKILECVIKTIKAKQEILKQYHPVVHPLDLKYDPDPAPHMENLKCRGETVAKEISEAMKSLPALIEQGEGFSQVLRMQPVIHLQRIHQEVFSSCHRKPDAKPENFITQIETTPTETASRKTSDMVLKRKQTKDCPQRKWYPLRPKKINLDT
T1 sequence (looked up) 4: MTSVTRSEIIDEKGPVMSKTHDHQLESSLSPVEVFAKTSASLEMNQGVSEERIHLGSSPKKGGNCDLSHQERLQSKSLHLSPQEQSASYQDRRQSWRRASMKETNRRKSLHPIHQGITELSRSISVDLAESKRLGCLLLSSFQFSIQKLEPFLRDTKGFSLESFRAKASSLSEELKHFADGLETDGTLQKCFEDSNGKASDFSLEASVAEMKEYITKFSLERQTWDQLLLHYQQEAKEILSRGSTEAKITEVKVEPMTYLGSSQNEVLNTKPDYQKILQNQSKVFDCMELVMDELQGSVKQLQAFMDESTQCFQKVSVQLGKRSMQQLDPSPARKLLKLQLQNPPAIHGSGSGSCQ

Mis12C^M5 (NSL1 I216A) = molecular target: T2, Mis12C^M5 (NSL1 I216A) (human, UniProt Q9H081 1-205; Q6P1K2 1-205; Q96IY1 1-281; Q9H410 1-356, I216A); experiment: as above
T2 construct: MIS12, human; PMF1, human; NSL1, human, with I216A on the α5 helix; DSN1, human; source: Tnao38 insect cells (baculovirus), purified (Talon, SEC); copies: + + +
T2 sequence (looked up) 1: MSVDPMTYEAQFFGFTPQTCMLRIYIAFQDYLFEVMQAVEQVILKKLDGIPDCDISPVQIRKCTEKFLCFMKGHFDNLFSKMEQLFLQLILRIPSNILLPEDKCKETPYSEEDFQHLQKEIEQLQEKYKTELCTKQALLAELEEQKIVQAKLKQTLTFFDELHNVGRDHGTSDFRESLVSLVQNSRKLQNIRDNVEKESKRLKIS
T2 sequence (looked up) 2: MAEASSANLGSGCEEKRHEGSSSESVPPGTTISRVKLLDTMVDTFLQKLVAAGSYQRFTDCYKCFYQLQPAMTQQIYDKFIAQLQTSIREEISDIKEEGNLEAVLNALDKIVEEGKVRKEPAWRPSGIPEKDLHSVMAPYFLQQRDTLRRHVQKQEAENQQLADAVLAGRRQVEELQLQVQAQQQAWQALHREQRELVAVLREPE
T2 sequence (looked up) 3: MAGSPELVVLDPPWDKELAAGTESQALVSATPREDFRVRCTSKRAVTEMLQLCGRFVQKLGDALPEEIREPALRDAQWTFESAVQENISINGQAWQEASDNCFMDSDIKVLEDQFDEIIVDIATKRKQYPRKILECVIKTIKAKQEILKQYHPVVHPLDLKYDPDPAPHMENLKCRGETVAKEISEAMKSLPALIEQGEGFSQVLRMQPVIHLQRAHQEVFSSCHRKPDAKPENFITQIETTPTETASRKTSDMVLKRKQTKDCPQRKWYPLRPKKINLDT
T2 sequence (looked up) 4: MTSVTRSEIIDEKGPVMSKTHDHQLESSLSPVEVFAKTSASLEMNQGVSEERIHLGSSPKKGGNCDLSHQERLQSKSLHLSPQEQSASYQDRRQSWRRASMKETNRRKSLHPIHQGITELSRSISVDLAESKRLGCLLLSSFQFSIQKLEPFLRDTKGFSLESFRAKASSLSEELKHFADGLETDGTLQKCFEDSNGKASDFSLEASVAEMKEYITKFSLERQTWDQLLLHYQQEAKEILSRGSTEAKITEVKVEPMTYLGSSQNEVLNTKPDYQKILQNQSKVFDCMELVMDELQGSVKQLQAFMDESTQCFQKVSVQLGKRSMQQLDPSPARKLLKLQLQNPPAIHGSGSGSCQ

[2] = molecular target: T3, DSN1 (subunit of Mis12C in the KMN structure) (human, UniProt Q9H410 1-356); experiment: cryo-EM structure; eight-subunit KMN (full-length Mis12C, SPC24 109–197/SPC25 92–224, ZWINT, KNL1 2,021–2,342), 0.3 mg/ml with 0.003% Triton; reconstruction at 4.5 Å; model fitted from known structures and AF2 predictions and refined against the map
T3 construct: DSN1, human; also called DSN1^SORT-HIS; source: Tnao38 insect cells (baculovirus), co-expressed in Mis12C, purified (Talon, SEC)
T3 sequence (looked up): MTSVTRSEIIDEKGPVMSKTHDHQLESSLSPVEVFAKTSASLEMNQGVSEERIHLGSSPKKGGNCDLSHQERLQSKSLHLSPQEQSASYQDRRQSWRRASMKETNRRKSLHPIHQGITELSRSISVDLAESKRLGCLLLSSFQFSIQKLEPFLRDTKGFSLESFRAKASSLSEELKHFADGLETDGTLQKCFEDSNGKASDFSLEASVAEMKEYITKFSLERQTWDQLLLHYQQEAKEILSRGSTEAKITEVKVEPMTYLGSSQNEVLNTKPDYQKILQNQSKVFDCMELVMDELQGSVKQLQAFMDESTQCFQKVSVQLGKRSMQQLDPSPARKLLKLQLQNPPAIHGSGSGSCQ

[3] = molecular target: T4, NSL1 (subunit of Mis12C in the KMN structure) (human, UniProt Q96IY1 1-281); experiment: as above
T4 construct: NSL1, human; source: Tnao38 insect cells (baculovirus), co-expressed in Mis12C, purified (Talon, SEC)
T4 sequence (looked up): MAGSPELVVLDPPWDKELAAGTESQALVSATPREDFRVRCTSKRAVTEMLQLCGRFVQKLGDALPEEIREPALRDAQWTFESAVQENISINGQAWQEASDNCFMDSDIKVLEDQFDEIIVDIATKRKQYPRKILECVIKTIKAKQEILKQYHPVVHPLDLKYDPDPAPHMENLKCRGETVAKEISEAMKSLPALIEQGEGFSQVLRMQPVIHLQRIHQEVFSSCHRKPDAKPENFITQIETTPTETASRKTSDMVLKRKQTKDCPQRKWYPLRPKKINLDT

SPC25_(92–224) = molecular target: T5, SPC25_(92–224) (human, UniProt Q9HBM1 92-224); experiment: as above
T5 construct: SPC25, human, residues 92–224 (RWD domain); source: E. coli BL21(DE3)-codon-plus-RIPL, co-purified with SPC24 (glutathione-agarose, 3C protease, SEC)
T5 sequence (looked up): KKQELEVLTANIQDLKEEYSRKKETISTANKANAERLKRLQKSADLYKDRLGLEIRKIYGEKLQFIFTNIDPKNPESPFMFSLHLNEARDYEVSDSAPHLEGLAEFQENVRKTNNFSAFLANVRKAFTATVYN

[4] = molecular target: T1, Mis12 complex (Mis12C), full length: …; experiment: as above
[5] = molecular target: T6, KNL1 residues 2,021–2,342 (human, UniProt Q8NG31 2021-2342); experiment: SEC; KNL1 2,021–2,342, ZWINT, Mis12C and SPC24 109–197/SPC25 92–224 mixed equimolar on ice for at least 1 h; 50 mM HEPES pH 8.0, 150 mM NaCl, 2 mM TCEP; S200 5/150 column
T6 construct: KNL1 (CASC5), human, C-terminal region, residues 2,021–2,342; numbering of isoform 1 of the CASC5 gene; also called KNL1_(2,021–2,342); Knl1_(2,021–2,342); source: E. coli BL21(DE3)-Codon-plus-RIPL, purified (glutathione-agarose, TEV cleavage, SEC)
T6 sequence (looked up): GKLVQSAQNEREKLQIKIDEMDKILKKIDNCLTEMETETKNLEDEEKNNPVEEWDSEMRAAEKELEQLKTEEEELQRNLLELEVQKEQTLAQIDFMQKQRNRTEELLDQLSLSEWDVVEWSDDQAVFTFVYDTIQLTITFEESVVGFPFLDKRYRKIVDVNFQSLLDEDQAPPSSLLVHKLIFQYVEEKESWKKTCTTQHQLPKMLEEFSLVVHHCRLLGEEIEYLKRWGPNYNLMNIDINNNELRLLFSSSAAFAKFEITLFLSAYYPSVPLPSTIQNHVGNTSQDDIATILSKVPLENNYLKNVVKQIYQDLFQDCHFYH

Kd [1]: ~46 nM | fold reduction of binding affinity against the wild-type pair (Mis12C^M5 (NSL1 I216A)): ~15 fold
B1: full-length SPC24/SPC25 (complex, human)
chain 1: MAAFRDIEEVSQGLLSLLGANRAEAQQRRLLGRHEQVVERLLETQDGAEKQLREILTMEKEVAQSLLNAKEQVHQGGVELQQLEAGLQEAGEEDTRLKASLLQLTRELEELKEIEADLERQEKEVDEDTTVTIPSAVYVAQLYHQVSKIEWDYECEPGMVKGIHHGPSVAQPIHLDSTQLSRKFISDYLWSLVDTEW
chain 2: MVEDELALFDKSINEFWNKFKSTDTSCQMAGLRDTYKDSIKAFAEKLSVKLKEEERMVEMFLEYQNQISRQNKLIQEKKDNLLKLIAEVKGKKQELEVLTANIQDLKEEYSRKKETISTANKANAERLKRLQKSADLYKDRLGLEIRKIYGEKLQFIFTNIDPKNPESPFMFSLHLNEARDYEVSDSAPHLEGLAEFQENVRKTNNFSAFLANVRKAFTATVYN
notes: SPC24, human; SPC25, human; GST was cleaved off with 3C protease; also called SPC24/SPC25 heterodimer; SPC24/SPC25 pair; source: E. coli BL21(DE3)-codon-plus-RIPL, purified (glutathione-agarose, 3C protease, SEC)

binding result [2]: binds | binding result [3]: binds | binding result (SPC25_(92–224)): binds
B2: SPC24_(109–197) (domain or fragment, human, UniProt Q8NBT2 109-197, looked up)
chain: EELKEIEADLERQEKEVDEDTTVTIPSAVYVAQLYHQVSKIEWDYECEPGMVKGIHHGPSVAQPIHLDSTQLSRKFISDYLWSLVDTEW
notes: source: E. coli BL21(DE3)-codon-plus-RIPL, co-purified with SPC25 (glutathione-agarose, 3C protease, SEC)

binding result [4]: binds | binding result [2]: binds | binding result [3]: binds
B3: SPC24_(109–197)/SPC25_(92–224) dimer (complex, human)
chain 1: EELKEIEADLERQEKEVDEDTTVTIPSAVYVAQLYHQVSKIEWDYECEPGMVKGIHHGPSVAQPIHLDSTQLSRKFISDYLWSLVDTEW
chain 2: KKQELEVLTANIQDLKEEYSRKKETISTANKANAERLKRLQKSADLYKDRLGLEIRKIYGEKLQFIFTNIDPKNPESPFMFSLHLNEARDYEVSDSAPHLEGLAEFQENVRKTNNFSAFLANVRKAFTATVYN
notes: SPC25, human, residues 92–224 (RWD domain); GST was cleaved off with 3C protease; also called SPC24/SPC25 dimer; source: E. coli BL21(DE3)-codon-plus-RIPL, purified (glutathione-agarose, 3C protease, SEC)

binding result [5]: binds
B4: ZWINT (natural protein, human, UniProt O95229 1-277, looked up)
chain: MEAAETEAEAAALEVLAEVAGILEPVGLQEEAELPAKILVEFVVDSQKKDKLLCSQLQVADFLQNILAQEDTAKGLDPLASEDTSRQKAIAAKEQWKELKATYREHVEAIKIGLTKALTQMEEAQRKRTQLREAFEQLQAKKQMAMEKRRAVQNQWQLQQEKHLQHLAEVSAEVRERKTGTQQELDRVFQKLGNLKQQAEQERDKLQRYQTFLQLLYTLQGKLLFPEAEAEAENLPDDKPQQPTRPQEQSTGDTMGRDPGVSFKAVGLQPAGDVNLP
notes: ZWINT, human; Probably made like the mutants (GST fusion, 3C cleaved); ZWINT was in the cryo-EM sample but is not visible in the map; also called ZWINT^WT

Reference: publication PMC11189300, “Structure of the human KMN complex and implications for regulation of its assembly” (Nature Structural & Molecular Biology, 2024)
